Columns and labels:
[1] = target: T1, MCF-7 breast adenocarcinoma cell line (Homo sapiens, UniProt P08069); assay: FACS binding of humanized variants on MCF-7
T1 construct: host or cells: MCF-7
Description: The binding properties of the humanized variants were evaluated by FACS analyses on the human MCF-7 breast adenocarcinoma cell line and the monkey cell line Cos-7 using increasing antibody concentrations. For that purpose, cells (1×10^6 cells/ml) were incubated with anti-IGF-1R antibodies for 20 min. at 4° C. in FACS buffer (PBS, 0.1% BSA, 0.01% NaN3). They were then washed 3 times and incubated with the appropriate secondary antibody coupled with Alexa 488 for 20 additional minutes at 4° C. in the dark before being washed 3 times in FACS buffer. The binding of anti-IGF-1R antibodies was immediately performed on viable cells which were identified using propidium iodide (that stains dead cells). The EC50 of binding expressed in molarity (M) was calculated using a nonlinear regression analysis (GraphPad Prims 4.0).

rhIGF-1R = target: T2, rhIGF-1R (Homo sapiens, UniProt P08069); assay: direct ELISA on rhIGF-1R coating (816C12, 810D12); type: binding; settings: for OD values obtained at 5 μg/ml by ELISA, rhIGF-1R coating: OD at 450 nm; for EC50: ELISA dose response, Prism
T2 construct: poorly recognize the rhIGF-1R ECD protein when directly coated to ELISA plates; purchased R&D Systems 391-GR
Description: (§1) Further characterizations of 816C12 and 810D12 were then performed using hybridoma supernatant such as rhIGF-1R or rmIGF-1R or rhIR ELISA. In all direct ELISAs, proteins of interest were immobilized (1 μg/ml) to the bottom of each well. After saturation, hybridoma supernatants were added to the wells. After a 1-hour incubation period and a washing step, a solution of goat anti-mouse IgG—HRP labelled polyclonal antibody was used for detection, prior to the addition of the TMB substrate. The reaction was stopped with a 1M H2SO4 solution before reading the OD with a spectrophotometer at a 450 nm wavelength.
The dose response curves for the second IGF-1R antibodies on rhIGF-1R coating are presented in FIG. 1 for the 816C12 and in FIG. 1B for the 810D12. The values of the EC50 are determined using Prism application.

rmIGF-1R = rmIGF-1R (Mus musculus, UniProt Q60751); assay: direct ELISA on rmIGF-1R coating (816C12, 810D12); type: binding, murine; settings: for OD values obtained at 5 μg/ml by ELISA, rmIGF-1R coating: OD at 450 nm; for binding to the murine form of the IGF-1R: ELISA
rmIGF-1R, sequence (Q60751 31-1373): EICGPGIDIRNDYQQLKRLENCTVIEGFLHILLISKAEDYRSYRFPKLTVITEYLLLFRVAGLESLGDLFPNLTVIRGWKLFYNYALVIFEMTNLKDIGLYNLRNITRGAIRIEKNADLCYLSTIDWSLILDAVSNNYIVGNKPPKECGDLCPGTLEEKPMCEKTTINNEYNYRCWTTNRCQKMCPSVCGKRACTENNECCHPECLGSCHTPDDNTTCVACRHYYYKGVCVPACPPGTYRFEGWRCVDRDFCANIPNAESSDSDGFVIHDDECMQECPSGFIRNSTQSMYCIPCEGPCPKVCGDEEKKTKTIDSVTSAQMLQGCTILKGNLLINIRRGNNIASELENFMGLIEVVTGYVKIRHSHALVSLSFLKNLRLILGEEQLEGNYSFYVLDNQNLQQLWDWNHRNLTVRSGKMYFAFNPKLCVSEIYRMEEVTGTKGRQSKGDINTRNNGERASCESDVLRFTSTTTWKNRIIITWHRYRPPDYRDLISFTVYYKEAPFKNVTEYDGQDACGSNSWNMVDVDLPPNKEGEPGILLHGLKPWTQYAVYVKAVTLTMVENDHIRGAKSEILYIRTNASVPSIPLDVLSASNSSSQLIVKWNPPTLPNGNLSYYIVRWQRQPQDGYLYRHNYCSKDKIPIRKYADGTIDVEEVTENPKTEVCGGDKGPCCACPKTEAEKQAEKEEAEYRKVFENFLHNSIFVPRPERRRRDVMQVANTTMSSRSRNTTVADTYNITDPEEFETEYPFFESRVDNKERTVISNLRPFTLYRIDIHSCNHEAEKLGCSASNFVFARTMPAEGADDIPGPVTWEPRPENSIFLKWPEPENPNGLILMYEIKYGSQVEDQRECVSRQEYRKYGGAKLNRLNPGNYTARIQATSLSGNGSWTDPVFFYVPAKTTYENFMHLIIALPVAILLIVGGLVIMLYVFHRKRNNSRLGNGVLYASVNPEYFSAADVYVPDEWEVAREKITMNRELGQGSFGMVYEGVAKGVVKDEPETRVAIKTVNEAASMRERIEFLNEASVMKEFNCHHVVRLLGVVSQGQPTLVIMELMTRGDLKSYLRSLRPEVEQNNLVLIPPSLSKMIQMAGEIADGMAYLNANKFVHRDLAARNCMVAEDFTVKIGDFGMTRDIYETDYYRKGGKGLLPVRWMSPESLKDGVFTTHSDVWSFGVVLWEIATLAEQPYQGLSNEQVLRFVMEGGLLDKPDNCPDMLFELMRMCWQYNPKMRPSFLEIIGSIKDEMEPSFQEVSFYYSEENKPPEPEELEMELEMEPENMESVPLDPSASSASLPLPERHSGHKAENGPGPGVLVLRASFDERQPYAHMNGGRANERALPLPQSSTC
Description: as §1

rhIR = rhIR (Homo sapiens, UniProt P06213); assay: direct ELISA on rhIR coating (816C12, 810D12); type: binding; settings: for OD values obtained at 5 μg/ml by ELISA, rhIR coating: OD at 450 nm; for binding to the human IR: ELISA
Description: as §1

[2] = target: T3, IGF-1R, MCF-7 tumor cells (Homo sapiens, UniProt P08069); assay: IHC detection of IGF-1R on MCF-7 xenograft sections; set-up: key: No reactivity or membranous reactivity in less than 10% of tumour cells; 1+: Faint/barely perceptible membranous reactivity is detected in more than 10% of tumour cells. The cells are immunoreactive only in part of the membrane.; 2+: Weak to moderate complete membranous reactivity is seen in more than 10% of tumour cells.; 3+: Strong complete reactivity is seen in more than 10% of tumour cells; settings: membranous algorithm; antibody 5 μg/ml; paraffin embedded tumor
T3 construct: from tissue; host or cells: MCF-7 xenograft tumour grown in Swiss/Nude mice, paraffin sections
Description: (§2) Sections of tissue from MCF-7 xenograft were deparaffinized, rehydrated, and placed in Target Retrieval Buffer 1× (Dako S1699) in a boiling bath pre-warm at 98° C. for heat-induced epitope retrieval at 98° C. for 40 minutes then 20 additional minutes in the Target Retrieval Buffer. After 3 washes in Tris Buffer Saline-0.05% tween 20 (TBS-T) (Dako S3006) the Endogenous peroxidase activity was blocked using Peroxidase Blocking Reagent (Dako K4007) for five minutes. Sections were washed with TBS-T and incubated a blocking reagent (UltraV block-TA-125UB-LabVision) for 5 minutes before incubation with either the 816C12 monoclonal antibody (at 5 μg/ml) or mouse IgG1/kappa (5 μg/ml, X0931, Dako) as negative control for 1 hours at room temperature. Sections were washed with TBS-T and incubated with Envision (Dako) for 30 minutes. Diaminobenzidine was used for development of a brown reaction product (Dako K3468). The slides were immersed in hematoxylin for 2 minutes to counterstain (Dako S3309).

IGF-1R, SBC-5 tumor = target: T4, IGF-1R, SBC-5 tumor (Homo sapiens, UniProt P08069); assay: IHC detection of IGF-1R on SBC-5 xenograft sections; set-up: key: No reactivity or membranous reactivity in less than 10% of tumour cells; 1+: Faint/barely perceptible membranous reactivity is detected in more than 10% of tumour cells. The cells are immunoreactive only in part of the membrane.; 2+: Weak to moderate complete membranous reactivity is seen in more than 10% of tumour cells.; 3+: Strong complete reactivity is seen in more than 10% of tumour cells; settings: same protocol as MCF-7; paraffin embedded tumor
T4 construct: from tissue; host or cells: SBC-5 xenograft tumour grown in athymic mice, paraffin sections
Description: as §2
Level of IGF-1R was analyzed using the same protocol described in section 2.1 of the example 2 before.

soluble form of h-IGF1R = target: T5, soluble form of h-IGF1R (Homo sapiens, UniProt P08069); assay: Biacore binding competition on captured soluble h-IGF1R; settings: antibodies 50 μg/ml, 25° C.
T5 construct: a heterotetramer composed by two alpha chains and two extracellular domains of the beta chains; made in house
Excerpt: The experiment was run on a Biacore X100 device based on the Surface Plasmon Resonance technology. A CM5 sensor chip was activated with a mouse anti-polyHistidine IgG1 monoclonal antibody chemically linked to the carboxymethyldextran matrix using the amine coupling chemistry. Typically, 12451 RU and 12257 RU of antibodies were grafted on the flowcell 1 (FC1) and flowcell 2 (FC2) respectively. The classical HBS-EP+ buffer was used as the running buffer. This buffer was also used for the preparation of the solutions of the proteins. The experiment was carried at 25° C. and at a flow rate of […].
The soluble form of IGF1R produced in house is a heterotetramer composed by two alpha chains and two extracellular domains of the beta chains completed by a 6 Histidine sequence at their C-terminal end. The protein is injected during one minute on the FC2 at the concentration of 30 μg/ml (about 80 nM). The antibodies are injected at the concentration of 50 μg/ml (about 330 nM). Either a first antibody solution (FIGS. 35B and 35D) or the running buffer (FIGS. 35A and 35C) is injected during 90 s on both flowcells. A second antibody solution is then injected on both flow cells. The absence of binding of the second antibody after the binding of the first antibody is the proof that both antibodies bind to a nearby site on the antigen (FIG. 35B) At the opposite the binding of the second antibody after the binding of the first antibody is the proof that the binding site of the second antibody is out and away of the binding site of the first antibody (FIG. 35D). At the end of each cycle, the sensor chip surface is regenerated by an injection of a Glycine, HCl 10 mM pH 1.5 buffer during 30 s.
The levels of binding of the Ac2 (arrows) without (FIGS. 35A and 35B) or with an Ac1 (FIGS. 35C and 35D) were recorded 20 s after the end of the injection. The data are represented on the histogram graph in FIG. 36.

Molecule | EC50 [1] [nM] | OD values obtained at 5 μg/ml by ELISA, rhIGF-1R coating (rhIGF-1R) | EC50 (rhIGF-1R) [nM] | OD values obtained at 5 μg/ml by ELISA, rmIGF-1R coating (rmIGF-1R) | binding to the murine form of the IGF-1R (rmIGF-1R) | OD values obtained at 5 μg/ml by ELISA, rhIR coating (rhIR) | binding to the human IR (rhIR) | IHC scoring of the staining of MCF-7 tumor cells [2] | IHC scoring of IGF-1R in SBC-5 tumor (IGF-1R, SBC-5 tumor) | binding as Ac2 after Hz208F2-4 injected as Ac1 (soluble form of h-IGF1R)
hz208F2 H049/L021: humanized 208F2; VH SEQ ID No. 41, VL SEQ ID No. 37 (antibody, V domains shown, hz208F2 heavy chain H049, VH; hz208F2 Light chain L021, VL) VH: QVQLVQSGAEVKKPGASVKVSCKASGYTFTSYYMHWVRQAPGQGLEWMGWIWPGDGSTKYAQKFQGRVTMTRDKSSSTVYMELSSLRSEDTAVYYCASPMITPNYAMDYWGQGTLVTVSS VL: DIQMTQSPSSLSASVGDRVTITCRASQDISKYLNWYQQKPGKAPKLLIYYTSRLHSGVPSRFSGRGSGTDFSLTISSLQPEDFATYFCQQGSTLPYTFGGGTKVEIK | 0.66 |  |  |  |  |  |  |  |  | 
hz208F2 H076/L021: humanized 208F2; VH SEQ ID No. 55, VL SEQ ID No. 37 (antibody, V domains shown, hz208F2 heavy chain H076, VH; hz208F2 Light chain L021, VL) VH: QVQLVQSGAEVKKPGASVKVSCKASGYTFTSYYIHWVRQAPGQGLEWMGWIWPGDGSTKYAQKFQGRVTMTRDTSTSTVYMELSSLRSEDTAVYYCASPMITPNYAMDYWGQGTLVTVSS VL: DIQMTQSPSSLSASVGDRVTITCRASQDISKYLNWYQQKPGKAPKLLIYYTSRLHSGVPSRFSGRGSGTDFSLTISSLQPEDFATYFCQQGSTLPYTFGGGTKVEIK | 0.58 |  |  |  |  |  |  |  |  | 
810D12: first IGF-1R mouse monoclonal antibody, hybridoma CNCM I-4893; VH SEQ ID No. 7, VL SEQ ID No. 8 (antibody, V domains shown, 810D12 I-4893, heavy chain, Variable domain; 810D12 I-4893, light chain, Variable domain) VH: EVQLQQSGPELVKPGASVKMSCKASGHTFTSYMLHWVKQKPGQGLEWLGFINPYNDVTKYNENFKGKATLTSDKSSSTAYMELNSLTSEDSAVYFCVTTAYYGNGRYFDVWGAGTTVTVSS VL: DIQMTQTTSSLSASLGDRVTISCRASQDITNYLTWYQQKPDGTVKVLIYYTSRLYSGVPSRFSGSGSGSDYSLTINNLEQEDIATYFCQQGYSLPWTFGGGTKLEIK |  | 2.136 | 0.51 | 1.293 | do not bind | 0.048 | do not bind | 3+ | 1+ | practically no effect
816C12: first IGF-1R mouse monoclonal antibody, hybridoma CNCM I-4894; VH SEQ ID No. 17, VL SEQ ID No. 18 (antibody, V domains shown, 816C12 I-4894, heavy chain, Variable domain; 816C12 I-4894, light chain, Variable domain) VH: EVQLQQSGPELVKPGASVKMSCKASGHTFTSYVLHWMKRKPGQGLEWIGYINPHNDVTKYNENFKGKATLTSDKYSSTVYMEVSSLTSEDSAVYYCVSTAYYGNGRYFDVWGAGTTVTVSS VL: DIQMTQTTSSLSASLGDRVTISCRASQDINNYLNWYQQKPDGTVKLLIYYTSRLHSGVSSRFSGSGSGTDYSLTISNLEQEDIATYFCQQGNTLPWTFGGGTKLEIK |  | 2.622 | 0.41 | 0.065 | do not bind | 0.055 | do not bind | 3+ | 1+ | practically no effect
